According to patent US20220251518A1 (published 2022):

Target: T1, Aβ1-42, monomer and/or protofibrils (form not told for the result) (human, UniProt P05067 672-713)
T1 construct: domain: amyloid beta (Aβ) 1-42 peptide; also called Aβ1-42 peptide or protofibrils; mixture of Aβ1-42 peptide (monomer) and protofibrils
Experiment: BLI (Octet RED 96), antibody captured on anti-rat IgG probe; monomer or protofibrils not told

T1 sequence (P05067 672-713 limits assumed): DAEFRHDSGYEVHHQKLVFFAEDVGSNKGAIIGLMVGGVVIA

Kd: 1 pM
B1: monoclonal antibody 11G10 (antibody, V domains shown)
VH: EVQLQQSGAEIVKPGASVKLSCKASGYTFTSYWMHWVKQRPGQGLEWIGEIDPSDSYTNYNQKFKGKATLTVDKSSSTAYMQLRSLTSEDSAVYYCARSFHGNLFVYWGQGTLVTVSA
VL: QIVLTQSPAIMSASPGEKVTITCSASSSVSYMHWFQQKPGTSPKLWIYSTSNLATGVPARFSGSGSGTSYSLTISRMEAEDAATYYCQQRSSYPLTFGAGTKLEIK
